In patent US20090149389A1:
Each block holds one binder with its values, some of them ahead of it. Where no end group is shown, it is not given here. [ ]: non-standard residue; d: D form.

How the values were obtained:
Assay in all cases: cell-based or functional assay
[1] = target: PKC β 1 (h) (human (h)), P05771
[2] = target: PKG1α (h) (human (h)), Q13976
[3] = target: MAPKAP kinase II (MK2) (UniProt P49137)
Sequence of MAPKAP kinase II (MK2) (P49137 whole entry): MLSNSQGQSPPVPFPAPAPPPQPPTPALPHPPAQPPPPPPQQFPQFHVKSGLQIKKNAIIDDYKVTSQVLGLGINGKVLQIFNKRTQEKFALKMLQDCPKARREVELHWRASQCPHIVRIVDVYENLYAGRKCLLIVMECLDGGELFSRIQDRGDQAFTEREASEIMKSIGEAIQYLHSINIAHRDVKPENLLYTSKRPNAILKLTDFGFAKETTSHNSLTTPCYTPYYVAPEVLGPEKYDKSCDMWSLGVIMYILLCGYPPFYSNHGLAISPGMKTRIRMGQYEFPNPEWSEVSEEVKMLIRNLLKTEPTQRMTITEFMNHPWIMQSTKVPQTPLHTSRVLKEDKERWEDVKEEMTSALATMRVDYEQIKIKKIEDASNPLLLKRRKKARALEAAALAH

Sequence of PKC β 1 (h) (human (h)), P05771 (P05771 whole entry): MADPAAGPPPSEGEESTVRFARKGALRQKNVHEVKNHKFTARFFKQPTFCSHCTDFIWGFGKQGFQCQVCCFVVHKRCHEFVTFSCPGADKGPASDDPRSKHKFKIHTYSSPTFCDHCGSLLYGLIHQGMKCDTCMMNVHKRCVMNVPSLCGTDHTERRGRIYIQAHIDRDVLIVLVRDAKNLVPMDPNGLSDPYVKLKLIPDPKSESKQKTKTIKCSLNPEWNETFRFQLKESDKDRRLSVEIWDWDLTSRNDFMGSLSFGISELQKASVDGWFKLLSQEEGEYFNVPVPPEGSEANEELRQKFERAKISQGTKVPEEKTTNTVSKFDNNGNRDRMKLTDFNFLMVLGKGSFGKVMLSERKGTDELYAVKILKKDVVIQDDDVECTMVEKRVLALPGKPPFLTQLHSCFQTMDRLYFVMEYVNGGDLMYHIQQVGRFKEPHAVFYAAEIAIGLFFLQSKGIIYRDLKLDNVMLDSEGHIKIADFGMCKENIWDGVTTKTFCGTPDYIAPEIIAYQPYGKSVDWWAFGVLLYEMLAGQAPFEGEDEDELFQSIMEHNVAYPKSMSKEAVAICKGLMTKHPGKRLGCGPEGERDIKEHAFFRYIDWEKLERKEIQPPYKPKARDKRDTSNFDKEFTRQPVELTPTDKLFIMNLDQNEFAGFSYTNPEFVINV
Sequence of PKG1α (h) (human (h)), Q13976 (Q13976 whole entry): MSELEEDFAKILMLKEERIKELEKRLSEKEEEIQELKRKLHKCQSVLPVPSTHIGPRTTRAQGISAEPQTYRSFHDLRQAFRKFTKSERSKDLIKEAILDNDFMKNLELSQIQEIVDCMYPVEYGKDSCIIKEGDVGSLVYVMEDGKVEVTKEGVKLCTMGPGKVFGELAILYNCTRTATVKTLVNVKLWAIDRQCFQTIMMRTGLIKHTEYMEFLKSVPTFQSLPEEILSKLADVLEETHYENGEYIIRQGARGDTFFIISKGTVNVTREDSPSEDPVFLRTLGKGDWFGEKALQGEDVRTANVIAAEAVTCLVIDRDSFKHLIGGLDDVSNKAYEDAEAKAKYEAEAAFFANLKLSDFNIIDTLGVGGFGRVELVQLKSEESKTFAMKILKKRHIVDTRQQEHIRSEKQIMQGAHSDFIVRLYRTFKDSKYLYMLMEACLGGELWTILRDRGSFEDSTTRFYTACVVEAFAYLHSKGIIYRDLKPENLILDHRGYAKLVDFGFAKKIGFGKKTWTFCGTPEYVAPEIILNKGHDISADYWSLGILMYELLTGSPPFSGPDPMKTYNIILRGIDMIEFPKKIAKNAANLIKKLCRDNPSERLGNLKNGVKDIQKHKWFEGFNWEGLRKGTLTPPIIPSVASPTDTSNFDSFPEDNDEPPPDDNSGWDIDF

B3: KALNdRQLGVAA (peptide, from a related filing)
peptide: KALN[dR]QLGVAA
% of … [SEQ ID NO: 124] Reaction Velocity at an Inhibitor Concentration of 100 µM [3]: 306%

B4: KALdNRQLGVAA (peptide, from a related filing)
peptide: KAL[dN]RQLGVAA
% of … [SEQ ID NO: 124] Reaction Velocity at an Inhibitor Concentration of 100 µM [3]: 95%

B5: KALNRQLGdVAA (peptide, from a related filing)
peptide: KALNRQLG[dV]AA
% of … [SEQ ID NO: 124] Reaction Velocity at an Inhibitor Concentration of 100 µM [3]: 260%

Second part, the binder after the results:

Profile-1 @ = 30 µm (kinase profiler assay) [1]: 8 | Profile-1 @ = 30 µm (kinase profiler assay) [2]: 16
B1: … (peptide)
peptide: WLRRIKAWLRRIKALNRQLGVAA

% of … [SEQ ID NO: 124] Reaction Velocity at an Inhibitor Concentration of 100 µM [3]: 146%
B2: KAd… (peptide, from a related filing)
peptide: KA[dL]NRQLGVAA

Profile-1 @ = 100 µm (kinase profiler assay) [1]: 73 | Profile-1 @ = 100 µm (kinase profiler assay) [2]: 12
B6: … (peptide)
peptide: FAKLAARLYRKALARQLGVAA

Profile-1 @ = 100 µm (kinase profiler assay) [1]: 23 | Profile-1 @ = 100 µm (kinase profiler assay) [2]: 25
B7: … (peptide)
peptide: KAFAKLAARLYRKALARQLGVAA
